Laboratory results: patent publication US6515103B1 (priority 1996, dated 2003)
“And” between values parts separate entries of the source, which are not always exact repeats. Equal entries are not always repeated. Where two headings read alike, the source gives them in different places.

What was measured:
[1] = tested on: Frings audiogenic seizure-susceptible mice; conditions: mouse, in vivo
[2] = tested on: Frings audiogenic seizure-susceptible mice; conditions: for P.I. / PI: Frings audiogenic seizure-susceptible; for P.I. / ED50 / PI / ED50 nmol: mouse, in vivo
NMDA receptor = experiment: spermine-stimulated [3H]MK-801 binding assay, inhibition
[3] = Frings audiogenic seizure-susceptible

Molecule	IC50 (NMDA receptor)	other results
NC(=O)OCC(COC(N)=O)c1ccccc1 [Felbamate, reference compound]		TD50 nmol [1]: no marked toxicity; protected (number/tested) printed in ED50 column ([2]; 30 min): 5/8 protected at 525 and 4/8 protected at 630
CC(C(O)c1ccc(O)cc1)N1CCC(Cc2ccccc2)CC1 (stereo not shown) [Ifenprodil, reference compound]		TD50 [1, 3]: <25 nmols; P.I. [2]: <1; ED50 [2]: ˜25 nmols
Nc1nnc(-c2cccc(Cl)c2Cl)c(N)n1 [Lamotrigine, reference compound]		TD50 nmol [1, 3]: >290 nmol; PI [2]: >2.0; ED50 nmol [2]: 146 nmol
C[C@]12N[C@H](Cc3ccccc31)c1ccccc12 [MK801, dizocilpine, reference compound]		TD50 [1, 3]: 1.227 nmols; P.I. [2]: 1.9; ED50 [2]: 0.641 nmols
CCC1(c2ccccc2)C(=O)NC(=O)NC1=O [Phenobarbitol, reference compound]		TD50 nmol [1, 3]: 68.8 nmol; PI [2]: 0.5; ED50 nmol [2]: 145 nmol
CC1(C)O[C@@H]2[C@@H](CO[C@@]3(COS(N)(=O)=O)OC(C)(C)O[C@@H]23)O1 [Topiramate, reference compound]		TD50 nmol [1]: no marked toxicity; ED50 nmol [2]: >150 nmol
CCCC(CCC)C(=O)O [Valproic Acid, reference compound]		TD50 [1, 3]: >6000 <12,000; P.I. [2]: 1.1-2.2; PI [2]: 1.1-2.2; ED50 nmol [2]: 566 nmol; ED50 [2]: 5644 nmols
(A^7,10)1-12 Con G (peptide)	300 nM	
(A^7,10)1-13 Con G (peptide)	253 nM	
(A^7,10,14)1-14 Con G (peptide)	232 nM	
(A^7,10,14)1-15 Con G (peptide)	34 nM	
(A^7,10,14)1-16 Con G (peptide)	37 nM	
A^3 Con G (peptide)	9100 nM	
A^4 Con G (peptide)	> 20000 nM	
A^7,10,14 Con G (peptide)	88 nM	
A^7,Y^10 Con G (peptide)	79 nM	

Molecule	IC50 (NMDA receptor)	other results
A^10 Con G (peptide)	1100 nM	
A^14 Con G (peptide)	160 nM	
E^4 Con G (peptide)	> 20000 nM	
E^7,10,14 Con G (peptide)	> 20000 nM	
S^3 Con G (peptide)	3600 nM	
S^4 Con G (peptide)	> 20000 nM	
S^7 Con G (peptide)	250 nM	
S^10 Con G (peptide)	1800 nM	
S^14 Con G (peptide)	160 nM	
Sp^3 Con G (peptide)	900 nM	
Sp^4 Con G (peptide)	> 20000 nM	
Sp^7 Con G (peptide)	1200 nM	
Sp^10 Con G (peptide)	560 nM	
Sp^14 Con G (peptide)	1590 nM	
Y^3 Con G (peptide)	960 nM	
Y^7 Con G (peptide)	960 nM	
